Measurements published in publication PMC7583764.

Molecular target: recombinant human PGRN (human) (UniProt P28799)
UniProt P28799, sequence (P28799 18-593): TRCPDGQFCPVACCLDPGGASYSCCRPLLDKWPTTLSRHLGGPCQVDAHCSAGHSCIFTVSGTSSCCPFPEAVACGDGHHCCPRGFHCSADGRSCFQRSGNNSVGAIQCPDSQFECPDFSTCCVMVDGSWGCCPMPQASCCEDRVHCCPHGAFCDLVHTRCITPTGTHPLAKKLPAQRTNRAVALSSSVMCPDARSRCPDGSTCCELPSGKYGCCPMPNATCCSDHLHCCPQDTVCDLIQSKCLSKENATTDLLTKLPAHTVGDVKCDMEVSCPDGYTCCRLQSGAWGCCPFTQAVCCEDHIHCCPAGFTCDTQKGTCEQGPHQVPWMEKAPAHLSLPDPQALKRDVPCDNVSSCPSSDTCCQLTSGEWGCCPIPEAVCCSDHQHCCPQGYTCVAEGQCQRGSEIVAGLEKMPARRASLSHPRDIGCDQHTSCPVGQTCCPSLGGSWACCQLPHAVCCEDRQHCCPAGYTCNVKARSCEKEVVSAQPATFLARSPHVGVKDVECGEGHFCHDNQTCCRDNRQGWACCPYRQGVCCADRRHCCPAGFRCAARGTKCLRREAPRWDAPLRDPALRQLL

- inhibition of TNF-induced NF-κB luciferase reporter activity in transfected human embryonic kidney cells by combined stimulation with YB-1 and PGRN: 65%
Substance: recombinant human Flag-YB-1 (from UniProt P67809 1-324) (natural protein)
